B1: His6-MBP-zfSMNwt (natural protein, zebrafish, UniProt Q9W6S8 1-281, looked up)
chain: MANGAEDVVFCRGTGQSDDSDIWDDTALIKAYDKAVASFKNALKGEDGATPQENDNPGKKRKNNKKNKSRKRCNAAPDKEWQVGDSCYAFWSEDGNLYTATITSVDQEKGTCVVFYTDYGNEEEQNLSDLLTEPPDMDEDALKTANVKETESSTEESDRSFTPQKSGHAKHKSKSNFPMGPPSWFPSFPPGPPPPPPHFKKMDGRRGEGPGPSFPGWPPMIPLGPPMIPPPPPMSPDFGEDDEALGSMLISWYMSGYHTGYYMGLRQGRKEAAASKKSHRK
notes: Survival motor neuron protein (Smn), zebrafish, wild type; The order of the tags is read from the printed name only; also called zebrafish Smn; zebrafish-Smn only control; source: E. coli BL21(DE3), purified (NiNTA); not shown: His6, N-terminal, kept; MBP, N-terminal, kept

How the values were obtained:
His6-MBP-zfSMNwt = target: B1; test: SEC; Superdex 200 Increase 10/300 GL; purified fusion proteins run alone and as a mixture; fractions analysed by SDS-PAGE with Coomassie staining; conditions: both partners purified
[1] = target: the molecule itself; test: as above

Binder | binding result (His6-MBP-zfSMNwt) | binding result [1]
DSLDDADALGSMLISWYMSGYHTGYYMGFRQNQ (domain or fragment, human, UniProt Q16637 252-284, looked up, The N-terminal place of GST is read from the printed name only; also called human SMN; human-SMN only control; source: E. coli BL21(DE3), purified (NiNTA); not shown: GST, N-terminal, kept) [GST-hSMN (252-284)] | binds | binds
B1 | – | binds

Source: article PMC8385639, “Fluorescence Correlation Spectroscopy Reveals Survival Motor Neuron Oligomerization but No Active Transport in Motor Axons of a Zebrafish Model for Spinal Muscular Atrophy” (Frontiers in Cell and Developmental Biology, 2021)
